From patent publication US10111934

Target: IGF-I receptor (IGF-IR) on P6 cells, which overexpress IGF-IR (UniProt P08069)
Assay: cell-based or functional assay

UniProt P08069, sequence (P08069 31-1367 limits assumed): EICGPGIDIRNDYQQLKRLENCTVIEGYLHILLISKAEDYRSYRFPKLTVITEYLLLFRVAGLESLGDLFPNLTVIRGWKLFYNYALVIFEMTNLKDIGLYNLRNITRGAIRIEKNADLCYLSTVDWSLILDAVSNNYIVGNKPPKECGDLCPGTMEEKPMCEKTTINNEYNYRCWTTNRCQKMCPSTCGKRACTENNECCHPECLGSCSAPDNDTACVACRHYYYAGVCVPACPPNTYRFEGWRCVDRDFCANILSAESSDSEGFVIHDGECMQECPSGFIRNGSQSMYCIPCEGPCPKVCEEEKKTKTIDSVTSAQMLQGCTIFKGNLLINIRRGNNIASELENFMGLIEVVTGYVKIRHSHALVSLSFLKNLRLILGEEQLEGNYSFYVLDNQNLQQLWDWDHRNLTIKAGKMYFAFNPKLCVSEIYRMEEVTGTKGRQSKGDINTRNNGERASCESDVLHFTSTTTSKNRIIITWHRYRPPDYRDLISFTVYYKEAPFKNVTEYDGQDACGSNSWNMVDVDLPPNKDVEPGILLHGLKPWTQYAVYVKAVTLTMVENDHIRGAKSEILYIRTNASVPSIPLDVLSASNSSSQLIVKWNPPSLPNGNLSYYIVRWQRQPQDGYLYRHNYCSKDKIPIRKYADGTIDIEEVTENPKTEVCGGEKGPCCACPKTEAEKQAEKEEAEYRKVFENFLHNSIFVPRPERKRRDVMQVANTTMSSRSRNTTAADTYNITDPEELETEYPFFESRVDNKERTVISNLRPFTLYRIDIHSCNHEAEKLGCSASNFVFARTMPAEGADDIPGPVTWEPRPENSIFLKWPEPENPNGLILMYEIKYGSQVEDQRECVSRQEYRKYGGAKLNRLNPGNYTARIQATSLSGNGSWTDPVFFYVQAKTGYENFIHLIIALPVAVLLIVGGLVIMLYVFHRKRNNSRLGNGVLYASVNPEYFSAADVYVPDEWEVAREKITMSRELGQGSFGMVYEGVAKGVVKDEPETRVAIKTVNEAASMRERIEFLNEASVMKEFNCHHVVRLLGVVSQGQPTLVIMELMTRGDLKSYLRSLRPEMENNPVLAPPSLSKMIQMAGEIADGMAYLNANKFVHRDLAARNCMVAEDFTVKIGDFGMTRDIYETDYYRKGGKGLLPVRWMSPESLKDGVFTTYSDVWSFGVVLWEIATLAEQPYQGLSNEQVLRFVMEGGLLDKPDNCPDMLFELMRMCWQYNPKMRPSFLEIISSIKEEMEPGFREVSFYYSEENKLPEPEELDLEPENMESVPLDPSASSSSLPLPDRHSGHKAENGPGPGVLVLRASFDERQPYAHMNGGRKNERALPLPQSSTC

Substance	KIRA (rel to IStop)	KIRA Raw (IGF-IR phosphorylation, KIRA assay on P6 cells, conditioned medium)	KIRA/Total IGF	further results
IGF-IA (murine class I IGF-IA, wild-type construct) (from UniProt P05017 49-153) (ligand)	0.59	45.8	28.2	IGF-IR phosphorylation per IGF molecule against mature IGF-I (KIRA, 4 experiments): 30 % less
IGF-IKRRNN (IGF-IA with K68G, R71A, R77A, N92D, N100D; produces only pro-IGF-I) (from UniProt P05017 49-153) (ligand)	0.93	42.6	44.4	IGF-IR response in Kinase Receptor Activation (KIRA) assays, against mature IGF-I: 30 % more
IGF-INN (IGF-IA with N92D and N100D, glycosylation blocked) (from UniProt P05017 49-153) (ligand)	0.88	65.8	42.4	
gly-pro-IGF-I (glycosylated pro-IGF-IA) (from UniProt P05017 1-153) (ligand)				calculated IGF-IR activation (KIRA, FIG. 5B), potency against mature IGF-I (fold less potent): 2; calculated relative IGF-IR activation by gly-pro-IGF-I (GP), mature IGF-I set to 1.0, from the IA equation: 0.3; calculated relative IGF-IR activation by gly-pro-IGF-I (GP), mature IGF-I set to 1.0, from the KRR equation: 0.47; calculated relative IGF-IR activation by gly-pro-IGF-I (GP), mature IGF-I set to 1.0, mean of the IA and KRR equations: 0.38
pro-IGF-I (non-glycosylated pro-IGF-IA: mature IGF-I plus EA-peptide) (from UniProt P05017 1-153) (ligand)				calculated relative IGF-IR activation by pro-IGF-I (P), mature IGF-I set to 1.0, from the NN equation: 0.84; calculated relative IGF-IR activation by pro-IGF-I (P), mature IGF-I set to 1.0, mean of the NN and KRRNN equations: 0.89

More lines, main results first:

KIRA (rel to IStop)	KIRA Raw (IGF-IR phosphorylation, KIRA assay on P6 cells, conditioned medium)	KIRA/Total IGF	Substance	further results
0.61	23.6	29.3	IGF-IKRR (IGF-IA with K68G, R71A, R77A, cleavage blocked) (from UniProt P05017 49-153) (ligand)	IGF-IR phosphorylation per IGF molecule against mature IGF-I (KIRA, 4 experiments): 30 % less
1	39	47.9	mature IGF-I (murine), produced from the IGF-ISt construct (from UniProt P05017 49-118) (ligand)	
